Measured values reported in paper PMC10362293.
Like-named read-outs stand apart in the source and are kept apart here.

What was measured:
[1] = target: FoxP1 FKH domain, single-cysteine mutant N32C (on C61S) labelled with Oregon Green 488 (human); assay: fluorescence polarisation
[2] = target: FoxP1 FKH domain, single-cysteine mutant N32C (on C61S) labelled with Oregon Green 488 (human); assay: fluorescence polarisation; remark: listed apart in the source

Kd [1]: 18 µM
kon [1]: 583 M⁻¹ s⁻¹
Kd [2]: 38 µM
B1: FoxP2 FKH domain, unlabeled (domain or fragment)
chain: VRPPFTYATLIRQAIMESSDRQLTLNEIYSWFTRTFAYFRRNAATWKNAVRHNLSLHKCFVRVENVKGAVWTVDEVEYQKRRSQKITGSPTL
